Data on one molecule can be found in patent US12539335B2, “Tricyclic polypeptide conjugated drug and use thereof” (CONJUSTAR (ZHUHAI) BIOLOGICS CO., LTD., priority 2021, dated 2026).

Data set [1] in a line: Stability in plasma, SD rats. The note with it: Sprague-Dawley (SD), rat, 37° C. Format: in vitro ADME. Here is the method:
(§1) Test Example 9: Stability Analysis of the Compounds of the Present Invention in Plasma from Different Species
(§2) To test the stability of the compounds of the present invention in plasma from SD rats, Cynomolgus macaques, and humans.
(§3) The corresponding incubation plates, including T0, T10, T30, T60, T120, and T240 incubation plates, were added with a 2 μL working solution of the compound to be tested (100 μM). Three parallel wells were prepared for each sample. Then, 98 μL of blank plasma from SD rats, Cynomolgus macaques, and humans was added to the corresponding incubation plates to which the working solution had been added. All samples were incubated in a 37° C. water bath. […] At the end of each incubation time point, the corresponding incubation plate was removed, added with stop buffer, precipitated, and centrifuged for 20 minutes. Then, 150 μL of the supernatant was analyzed by the LC-MS/MS method. The concentration of the compound to be tested in the sample was semi-quantitatively determined by the liquid chromatography-tandem mass spectrometry (LC-MS/MS) method.

In another data set the test system is NCI-H292 cells. Briefly: In vitro anti-proliferative activity, CellTiter-Glo, NCI-H292. Particulars: NCI-H292, 72 h. The data set is classed as cell-based, Human. Here is the method: Test Example 2: In Vitro Anti-Proliferative Activity of the Compounds of the Present Invention on Nci-H292 and Mda-Mb-468 Cells
To investigate the effect of the compounds of the present invention on inhibiting cell proliferation by detecting the effect of the compounds on cell activity in vitro in tumor cell lines MDA-MB-468 and NCI-H292.
The tumor cell lines were cultured in a 37° C., no CO2 incubator and a 37° C., 5% CO2 incubator according to the culture conditions shown in Table 8, respectively. The cells were periodically passaged, and cells in a logarithmic growth phase were taken for plating.
Cells in a logarithmic growth phase were harvested and centrifuged at 1000 rpm for 3 min at room temperature. The supernatant was discarded, and the cells were resuspended in 5 mL of a culture medium. Then, 20 μL of the cell suspension was pipetted and mixed with trypan blue at 1:1 for staining for 3 min to detect cell viability and to count viable cells. The cell density was adjusted to 3000 cells/well. Then, 90 μL of the cell suspension was added to each culture plate well, and a cell-free culture medium was added to blank control wells. The culture plate was incubated overnight in a 37° C., no CO2, and 100% relative humidity incubator and a 37° C., 5% CO2, and 100% relative humidity incubator, respectively.
Preparation of a 400× compound stock plate: The compound to be tested was gradient diluted with DMSO from the highest to the lowest concentration.
Preparation of a 10× compound working solution: 78 μL of a cell culture medium was added to a V-bottomed 96-well plate, and 2 μL of the compound solution of each concentration was pipetted from the 400× compound stock plate into the cell culture medium in the 96-well plate. Then, 2 μL of DMSO was added to vehicle control and blank control. […]
The detection was performed according to the instructions of the Promega CellTiter-Glo Luminescent Cell Viability Assay kit (Promega-G7573). The luminescence signal was detected on the En Vision® Multi-mode Plate Reader (En Vision 2104-10). […]
On the technique in general: In ATP-based viability assays light output follows the ATP content of the culture.

Data set [2] in a line: Metabolic stability in hepatocytes, CD-1 mice. Particulars: mouse, hepatocytes (cryopreserved, suspension), CD-1 mice hepatocytes, 0.5×10^6 cells/mL. The data set is classed as in vitro ADME. Here is the method: Test Example 7: Metabolic Stability of the Compounds of the Present Invention in Hepatocytes from Mice, Rats, Cynomolgus Macaques, and Humans
To investigate the metabolic stability of the compounds of the present invention in hepatocytes from mice, rats, Cynomolgus macaques, and humans.
Incubations were performed in 96-well plates using an external extraction method. Several 96-well sample precipitation plates, designated T0, T15, T30, T60, T90, TO-MC, T90-MC, and blank matrix, were prepared, respectively. The recovery culture medium and incubation culture medium were removed in advance and placed in a 37° C. water bath for preheating. […]
At the end of the incubation at the corresponding time point, the incubation plates were removed, from which 25 μL of a compound mixture with the cells and a control compound mixture with the cells were removed and added to sample plates containing 125 μL of stop buffer, respectively. […] All samples were mixed uniformly and then analyzed by the LC-MS/MS method.
The concentration of the compound to be tested and the concentration of the control in the sample were semi-quantitatively determined by the liquid chromatography-tandem mass spectrometry (LC-MS/MS) method without a standard curve and quality control sample. […]

Data set [3] can be described thus: Stability in plasma, Cynomolgus macaques. The data set is classed as in vitro ADME. The note with it: cynomolgus macaque, 37° C. Here is the method:
as §1, §2, §3

Counter-ions that a name gives are not always drawn. Starred links: 1 amine or outer side, 2 acyl side, 3 side chain; linkers in the order of their positions; H or OH if unused. Positions of bridges follow the written chain, without caps; N, C: chain ends. Non-standard residues stand in square brackets, D forms with d. Residues, ends and D or L forms follow the SMILES beside them. Chains are numbered I, II in the order given. *: point of attachment. TATA = O=C(CC[*:1])N1CN(C(=O)CC[*:2])CN(C(=O)CC[*:3])C1; Dolaproine = CO[C@@H]([C@@H]1CCCN1)[C@@H](C)C(=O)O; Dil = CC[C@H](C)[C@H](NC)[C@@H](CC(=O)O)OC; 1Nal = N[C@@H](Cc1cccc2ccccc12)C(=O)O; X2 = O=C(CCCC(=O)[*:2])NCCC(=O)[*:1]; PABC = O=C(OCc1ccc(N[*:1])cc1)[*:2]; X1 = C[C@@H](N*)[C@@H](O)c1ccccc1; Hyp = O=C(O)[C@@H]1C[C@@H](O)CN1; hArg = N=C(N)NCCCC[C@H](N)C(=O)O; Cit = NC(=O)NCCC[C@H](N)C(=O)O; Pen = CC(C)(S)[C@H](N)C(=O)O; NMeV = CN[C@H](C(=O)O)C(C)C; Sar = CNCC(=O)O

The molecule `CC[C@H](C)[C@@H]([C@@H](CC(=O)N1CCC[C@H]1[C@H](OC)[C@@H](C)C(=O)N[C@H](C)[C@@H](O)c1ccccc1)OC)N(C)C(=O)[C@@H](NC(=O)[C@H](C(C)C)N(C)C(=O)OCc1ccc(NC(=O)[C@H](CCCNC(N)=O)NC(=O)[C@@H](NC(=O)CCCC(=O)NCCC(=O)N(C)CC(=O)N(C)CC(=O)N(C)CC(=O)N(C)CC(=O)N(C)CC(=O)N(C)CC(=O)N(C)CC(=O)N(C)CC(=O)N(C)CC(=O)N(C)CC(=O)N[C@H]2CCCCNC(=O)C[C@@H](C(=O)N[C@H]3CSCCC(=O)N4CN5CN(C4)C(=O)CCSC(C)(C)[C@H](NC(=O)[C@@H](CC(=O)O)NC(=O)[C@H](Cc4cccc6ccccc46)NC(=O)[C@@H]4CCCN4C3=O)C(=O)N[C@@H](CCSC)C(=O)N[C@@H](CCCCNC(=N)N)C(=O)N[C@@H](CC(=O)O)C(=O)N[C@@H](Cc3c[nH]c4ccccc34)C(=O)N[C@@H](CO)C(=O)N[C@@H]([C@@H](C)O)C(=O)N3CCC[C@H]3C(=O)N3C[C@H](O)C[C@H]3C(=O)N[C@@H](Cc3c[nH]c4ccccc34)C(=O)N[C@H](C(N)=O)CSCCC5=O)NC(=O)CN(C)C2=O)C(C)C)cc1)C(C)C` [Acetate salt of PDC_2] (I: [Sar][Sar][Sar][Sar][Sar][Sar][Sar][Sar][Sar][Sar]K[Sar]DCP[1Nal][dD][Pen]M[hArg]DWSTP[Hyp]WC-NH2 / II: V[Cit][PABC][NMeV]V[Dil][Dolaproine]-X1; lactam I:11-I:13; linker I:14-I:18-I:28 via TATA; linker I:N-II:N via X2) yielded a half-life at 2 μM in data set [1] greater than 9.63 h. Moreover, in the data set on NCI-H292 cells, the half-inhibitory concentration (IC50) worked out at 42.1 nM, the Maximum inhibition rate was 81.32% and the Minimum inhibition rate is on record as 1.55%. The molecule further gave a half-life at 1 μM in data set [2] greater than 3.61 h. Besides, the CLint scaled at 1 μM in data set [2] (read-out: CLint (liver)) was less than 75.9 mL/min/kg. Also, in data set [3], the half-life at 2 μM is greater than 9.63 h.

One may read the half-life as the time needed for the level to fall by half in the phase considered. What is called IC50 is the concentration at which inhibition is half-maximal.
